Data as given in publication PMC9169696 (ACS applied materials & interfaces, 2021).
Square brackets hold non-standard residues; d marks the D form. Ends that are not written are not given here.

B1: fluorescein-labeled VN (natural protein, human, UniProt P04004 20-478, looked up)
chain: DQESCKGRCTEGFNVDKKCQCDELCSYYQSCCTDYTAECKPQVTRGDVFTMPEDEYTVYDDGEEKNNATVHEQVGGPSLTSDLQAQSKGNPEQTPVLKPEEEAPAPEVGASKPEGIDSRPETLHPGRPQPPAEEELCSGKPFDAFTDLKNGSLFAFRGQYCYELDEKAVRPGYPKLIRDVWGIEGPIDAAFTRINCQGKTYLFKGSQYWRFEDGVLDPDYPRNISDGFDGIPDNVDAALALPAHSYSGRERVYFFKGKQYWEYQFQHQPSQEECEGSSLSAVFEHFAMMQRDSWEDIFELLFWGRTSAGTRQPQFISRDWHGVPGQVDAAMAGRIYISGMAPRPSLAKKQRFRHRNRKGYRSQRGHSRGRNQNSRRPSRATWLSLFSSEESNLGANNYDDYRMDWLVPATCEPIQSVFFFSGDKYYRVNLRTRRVDTVDPPYPRSIAQYWLGCPAPGHL
modifications: fluorescein (from NHS-fluorescein; sites not stated)
B2: HLT2 peptide gel (peptide)
peptide: VLTKVKTKV[code p]PTKVEVKVLV-NH2
B3: fluorescein-labeled Fet-A (natural protein, bovine, UniProt P12763 19-359, looked up)
chain: IPLDPVAGYKEPACDDPDTEQAALAAVDYINKHLPRGYKHTLNQIDSVKVWPRRPTGEVYDIEIDTLETTCHVLDPTPLANCSVRQQTQHAVEGDCDIHVLKQDGQFSVLFTKCDSSPDSAEDVRKLCPDCPLLAPLNDSRVVHAVEVALATFNAESNGSYLQLVEISRAQFVPLPVSVSVEFAVAATDCIAKEVVDPTKCNLLAEKQYGFCKGSVIQKALGGEDVRVTCTLFQTQPVIPQPQPDGAEAEAPSAVPDAAGPTPSAAGPPVASVVVGPSVVAVPLPLHRAHYDLRHTFSGVASVESSSGEAFHVGKTPIVGQPSIPGGPVRLCPGRIRYFKI
modifications: fluorescein (from NHS-fluorescein; sites not stated)

Legend:
HLT2 peptide gel = target: B2; assay: depletion from the supernatant
[1] = target: BSA fluorescein isothiocyanate conjugate (bovine, UniProt P02769 25-607, fluorescein isothiocyanate conjugate (sites not given)); assay: light absorption and fluorescence imaging of the gel
bovine serum albumin = bovine serum albumin (bovine, UniProt P02769 25-607); assay: affinity purification with mass spectrometry
Sequence of bovine serum albumin (P02769 25-607): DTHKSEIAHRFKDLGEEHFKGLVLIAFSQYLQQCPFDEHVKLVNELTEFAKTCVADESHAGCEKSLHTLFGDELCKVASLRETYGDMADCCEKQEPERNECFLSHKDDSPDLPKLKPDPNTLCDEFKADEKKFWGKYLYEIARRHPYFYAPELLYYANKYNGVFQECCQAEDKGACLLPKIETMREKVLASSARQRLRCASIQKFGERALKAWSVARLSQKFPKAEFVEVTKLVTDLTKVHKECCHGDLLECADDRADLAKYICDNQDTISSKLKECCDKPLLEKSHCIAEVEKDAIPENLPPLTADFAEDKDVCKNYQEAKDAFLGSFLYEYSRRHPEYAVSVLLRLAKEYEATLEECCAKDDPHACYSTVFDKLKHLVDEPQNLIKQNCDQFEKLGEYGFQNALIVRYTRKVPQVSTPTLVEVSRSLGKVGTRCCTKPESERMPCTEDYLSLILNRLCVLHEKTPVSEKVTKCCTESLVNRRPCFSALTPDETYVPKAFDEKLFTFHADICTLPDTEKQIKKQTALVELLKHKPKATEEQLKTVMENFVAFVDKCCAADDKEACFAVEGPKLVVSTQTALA

Sequence of BSA fluorescein isothiocyanate conjugate (P02769 25-607): as above

concentration adsorbed with respect to total gel volume (HLT2 peptide gel) [mg/mL]	percent of the added protein adsorbed (HLT2 peptide gel) [%]	binding result [1]	binding result (bovine serum albumin)	Binder
0.1	87			B1
		binds	binds	B2
6.8	85			B3
